# Measured values taken from patent publication US20250262210A1 (TRUSTEES OF COLUMBIA UNIVERSITY IN THE CITY OF NEW YORK, published 2025).
# Positions count from the first letter of the chain named.
# T1: LZTR1 R810W-FLAG (human, UniProt Q8N653 1-840)
# T1 construct: Stably expressed in U87 cells by lentivirus; also called LZTR1-FLAG-R810W; LZTR1 RW; not shown: FLAG tag
# T1 sequence (looked up): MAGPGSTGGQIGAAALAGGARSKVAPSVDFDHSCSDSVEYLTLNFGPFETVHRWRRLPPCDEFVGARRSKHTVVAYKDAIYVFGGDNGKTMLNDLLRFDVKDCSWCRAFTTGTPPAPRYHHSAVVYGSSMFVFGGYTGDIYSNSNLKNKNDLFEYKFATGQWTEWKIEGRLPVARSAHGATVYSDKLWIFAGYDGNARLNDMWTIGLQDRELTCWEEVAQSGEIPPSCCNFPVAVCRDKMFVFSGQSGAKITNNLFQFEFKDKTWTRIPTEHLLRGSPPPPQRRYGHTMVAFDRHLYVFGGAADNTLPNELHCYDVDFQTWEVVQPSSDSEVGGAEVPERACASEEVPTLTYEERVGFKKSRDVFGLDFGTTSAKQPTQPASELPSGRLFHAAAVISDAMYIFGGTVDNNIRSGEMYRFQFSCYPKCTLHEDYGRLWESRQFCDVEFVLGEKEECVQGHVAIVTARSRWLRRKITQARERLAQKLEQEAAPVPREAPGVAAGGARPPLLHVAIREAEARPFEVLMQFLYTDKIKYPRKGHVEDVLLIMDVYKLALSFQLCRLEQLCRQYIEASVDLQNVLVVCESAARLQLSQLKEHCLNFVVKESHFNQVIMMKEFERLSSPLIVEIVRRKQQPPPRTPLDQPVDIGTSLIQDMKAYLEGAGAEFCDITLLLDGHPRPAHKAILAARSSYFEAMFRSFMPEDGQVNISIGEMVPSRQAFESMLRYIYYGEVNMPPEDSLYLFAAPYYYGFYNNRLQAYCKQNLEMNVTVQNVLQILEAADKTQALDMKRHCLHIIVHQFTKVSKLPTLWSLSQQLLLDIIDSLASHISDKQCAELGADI
# T2: LZTR1-FLAG (human, UniProt Q8N653 1-840)
# T2 construct: Expressed in HEK 293T, HeLa or U87 cells; used as cell lysate; also called LZTR1 wild type-FLAG; LZTR1 WT; not shown: FLAG tag at the C-terminus
# T2 sequence (looked up): T1 sequence (looked up) with W810R
# B1: NGLY1 (other, human, UniProt Q96IV0 2-654, looked up)
# chain: AAAALGSSSGSASPAVAELCQNTPETFLEASKLLLTYADNILRNPNDEKYRSIRIGNTAFSTRLLPVRGAVECLFEMGFEEGETHLIFPKKASVEQLQKIRDLIAIERSSRLDGSNKSHKVKSSQQPAASTQLPTTPSSNPSGLNQHTRNRQGQSSDPPSASTVAADSAILEVLQSNIQHVLVYENPALQEKALACIPVQELKRKSQEKLSRARKLDKGINISDEDFLLLELLHWFKEEFFHWVNNVLCSKCGGQTRSRDRSLLPSDDELKWGAKEVEDHYCDACQFSNRFPRYNNPEKLLETRCGRCGEWANCFTLCCRAVGFEARYVWDYTDHVWTEVYSPSQQRWLHCDACEDVCDKPLLYEIGWGKKLSYVIAFSKDEVVDVTWRYSCKHEEVIARRTKVKEALLRDTINGLNKQRQLFLSENRRKELLQRIIVELVEFISPKTPKPGELGGRISGSVAWRVARGEMGLQRKETLFIPCENEKISKQLHLCYNIVKDRYVRVSNNNQTISGWENGVWKMESIFRKVETDWHMVYLARKEGSSFAYISWKFECGSVGLKVDSISIRTSSQTFQTGTVEWKLRSDTAQVELTGDNSLHSYADFSGATEVILEAELSRGDGDVAWQHTQLFRQSLNDHEENCLEIIIKFSDL
# B2: POR (other, human, UniProt P16435 2-677, looked up)
# chain: GDSHVDTSSTVSEAVAEEVSLFSMTDMILFSLIVGLLTYWFLFRKKKEEVPEFTKIQTLTSSVRESSFVEKMKKTGRNIIVFYGSQTGTAEEFANRLSKDAHRYGMRGMSADPEEYDLADLSSLPEIDNALVVFCMATYGEGDPTDNAQDFYDWLQETDVDLSGVKFAVFGLGNKTYEHFNAMGKYVDKRLEQLGAQRIFELGLGDDDGNLEEDFITWREQFWPAVCEHFGVEATGEESSIRQYELVVHTDIDAAKVYMGEMGRLKSYENQKPPFDAKNPFLAAVTTNRKLNQGTERHLMHLELDISDSKIRYESGDHVAVYPANDSALVNQLGKILGADLDVVMSLNNLDEESNKKHPFPCPTSYRTALTYYLDITNPPRTNVLYELAQYASEPSEQELLRKMASSSGEGKELYLSWVVEARRHILAILQDCPSLRPPIDHLCELLPRLQARYYSIASSSKVHPNSVHICAVVVEYETKAGRINKGVATNWLRAKEPAGENGGRALVPMFVRKSQFRLPFKATTPVIMVGPGTGVAPFIGFIQERAWLRQQGKEVGETLLYYGCRRSDEDYLYREELAQFHRDGALTQLNVAFSREQSHKVYVQHLLKQDREHLWKLIEGGAHIYVCGDARNMARDVQNTFYDIVAELGAMEHAQAVDYIKKLMTKGRYSLDVWS
# B3: PNPLA2 (other, human, UniProt Q96AD5 1-504, looked up)
# chain: MFPREKTWNISFAGCGFLGVYYVGVASCLREHAPFLVANATHIYGASAGALTATALVTGVCLGEAGAKFIEVSKEARKRFLGPLHPSFNLVKIIRSFLLKVLPADSHEHASGRLGISLTRVSDGENVIISHFNSKDELIQANVCSGFIPVYCGLIPPSLQGVRYVDGGISDNLPLYELKNTITVSPFSGESDICPQDSSTNIHELRVTNTSIQFNLRNLYRLSKALFPPEPLVLREMCKQGYRDGLRFLQRNGLLNRPNPLLALPPARPHGPEDKDQAVESAQAEDYSQLPGEDHILEHLPARLNEALLEACVEPTDLLTTLSNMLPVRLATAMMVPYTLPLESALSFTIRLLEWLPDVPEDIRWMKEQTGSICQYLVMRAKRKLGRHLPSRLPEQVELRRVQSLPSVPLSCAAYREALPGWMRNNLSLGDALAKWEECQRQLLLGLFCTNVAFPPEALRMRAPADPAPAPADPASPQHQLAGPAPLLSTPAPEARPVIGALGL
# B4: PAFAH1B1 (other, human, UniProt P43034 1-410, looked up)
# chain: MVLSQRQRDELNRAIADYLRSNGYEEAYSVFKKEAELDVNEELDKKYAGLLEKKWTSVIRLQKKVMELESKLNEAKEEFTSGGPLGQKRDPKEWIPRPPEKYALSGHRSPVTRVIFHPVFSVMVSASEDATIKVWDYETGDFERTLKGHTDSVQDISFDHSGKLLASCSADMTIKLWDFQGFECIRTMHGHDHNVSSVAIMPNGDHIVSASRDKTIKMWEVQTGYCVKTFTGHREWVRMVRPNQDGTLIASCSNDQTVRVWVVATKECKAELREHEHVVECISWAPESSYSSISEATGSETKKSGKPGPFLLSGSRDKTIKMWDVSTGMCLMTLVGHDNWVRGVLFHSGGKFILSCADDKTLRVWDYKNKRCMKTLNAHEHFVTSLDFHKTAPYVVTGSVDQTVKVWECR
# Target: T1, LZTR1 R810W-FLAG
# Experiment: IP/MS, LZTR1 R810W-FLAG, U87
# Procedure, shortened: (§1)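 Extracted peptides in 3% acetonitrile/0.1% formic acid ran on a 50 cm C18 column into an Orbitrap Fusion, with MaxQuant identification and spectral counting.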
row,binding result,Binder
1,binds,B1
2,binds,B2
3,binds,B3
4,binds,B4

# Target: T2, LZTR1-FLAG
# Experiment: IP/MS, LZTR1 wild type-FLAG, U87
# Procedure, shortened: as §1
row,binding result,Binder
1,binds,B1
2,binds,B2
3,binds,B3
4,binds,B4
